Molecular target: IL-1 receptor (human) (UniProt P14778)
Experiment: cell-based or functional assay

Sequence of UniProt P14778 (P14778 18-569): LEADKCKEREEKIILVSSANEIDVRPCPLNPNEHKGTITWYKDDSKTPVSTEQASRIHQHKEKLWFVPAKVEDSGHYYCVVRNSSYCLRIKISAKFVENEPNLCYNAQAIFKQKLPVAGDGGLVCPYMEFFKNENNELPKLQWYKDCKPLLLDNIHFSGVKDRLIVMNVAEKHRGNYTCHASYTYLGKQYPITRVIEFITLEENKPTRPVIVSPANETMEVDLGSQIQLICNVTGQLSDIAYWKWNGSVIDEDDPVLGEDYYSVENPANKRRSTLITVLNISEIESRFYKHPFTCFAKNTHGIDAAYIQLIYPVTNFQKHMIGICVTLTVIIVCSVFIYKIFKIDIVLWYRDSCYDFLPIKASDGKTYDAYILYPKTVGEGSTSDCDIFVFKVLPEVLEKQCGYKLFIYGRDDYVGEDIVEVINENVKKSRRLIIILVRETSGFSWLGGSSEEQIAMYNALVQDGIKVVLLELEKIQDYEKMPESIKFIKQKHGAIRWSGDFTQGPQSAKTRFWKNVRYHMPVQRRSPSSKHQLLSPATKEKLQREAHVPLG

Kineret® (anakinra) (from UniProt P18510 26-177) (ligand)
IC50, inhibition of IL-1β induced production of IL-8 in human whole blood (100 pM rhIL-1β): 53.4 pM
